This note sets out measurements from paper PMC10997478.

For assay [1], the target named is neddylated ^Fluor568CRL2^FEM1C (human) (UniProt Q13617). Put plainly: other fluorescence titration; environmental perturbation of Alexa Fluor 568 on neddylated ^Fluor568CRL2^FEM1C (25 or 50 nM); unlabeled UBE2R2 titrated; reaction buffer at ionic strength of 50 mM; one-site model.
Assay [2] addresses NEDD8-Fluor568CRL2FEM1C (human) (UniProt Q15843).
In assay [3] the target is neddylated Fluor568CRL2VHL (human) (UniProt Q15843).
In assay [4] the target is NEDD8-Fluor568CRL2FEM1C (human) (UniProt Q15843). Put plainly: other fluorescence titration.
The next assay deals with T1, FEM1C (human) (UniProt Q96JP0).
T1 sequence: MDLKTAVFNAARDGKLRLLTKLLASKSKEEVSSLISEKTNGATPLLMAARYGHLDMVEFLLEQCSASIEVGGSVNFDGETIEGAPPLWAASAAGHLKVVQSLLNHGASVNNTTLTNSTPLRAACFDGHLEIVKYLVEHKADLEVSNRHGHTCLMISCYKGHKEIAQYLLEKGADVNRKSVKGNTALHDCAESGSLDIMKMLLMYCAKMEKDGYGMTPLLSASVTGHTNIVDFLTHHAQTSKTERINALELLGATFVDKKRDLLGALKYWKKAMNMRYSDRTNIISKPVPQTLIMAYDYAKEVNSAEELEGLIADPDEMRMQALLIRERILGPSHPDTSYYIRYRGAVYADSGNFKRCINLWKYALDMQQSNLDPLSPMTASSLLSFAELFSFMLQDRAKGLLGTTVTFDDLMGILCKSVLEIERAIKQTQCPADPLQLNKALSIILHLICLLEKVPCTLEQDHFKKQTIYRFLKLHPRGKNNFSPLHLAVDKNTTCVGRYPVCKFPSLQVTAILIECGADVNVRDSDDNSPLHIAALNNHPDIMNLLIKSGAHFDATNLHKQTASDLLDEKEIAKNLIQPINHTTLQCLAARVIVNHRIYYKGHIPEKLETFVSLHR

Assay [5] concerns the target NEDD8-Fluor568CRL2FEM1C (human) (UniProt Q15843). Put plainly: other fluorescence titration; environmental perturbation of the Fluor568 dye: unlabelled UBE2R2 titrated into 25 or 50 nM NEDD8-Fluor568CRL2FEM1C; 30 mM Tris pH 7.5, 100 mM NaCl, BSA; one-site binding fit.
Assay [6] shares this target. Put plainly: other fluorescence titration; environmental perturbation of the Fluor568 dye: unlabelled UBE2R2 or UBE2R2C93K-ubiquitin titrated into 25 or 50 nM NEDD8-Fluor568CRL2FEM1C; 30 mM Tris pH 7.5, final 50 mM NaCl, BSA; one-site binding fit.
Assay [7] has as its target NEDD8-Fluor568CUL2-RBX1 (human) (UniProt Q15843). Put plainly: FRET or BRET; Fluor647UBE2R2C93K titrated into 25 or 50 nM NEDD8-Fluor568CUL2-RBX1 in solution; 30 mM Tris pH 7.5, final 50 mM NaCl, BSA; excitation 575 nm; one-site binding fit. In general terms: In BRET a luciferase serves as donor, and the signal depends on an acceptor being close.
Assay [8] has the same target. Nature of the assay: FRET or BRET; Fluor647UBE2R2C93K titrated into 25 or 50 nM NEDD8-Fluor568CUL2-RBX1 in solution; 30 mM Tris pH 7.5, 100 mM NaCl, BSA; excitation 575 nm; one-site binding fit.

Chain of UBE2D3 (P61077 whole entry): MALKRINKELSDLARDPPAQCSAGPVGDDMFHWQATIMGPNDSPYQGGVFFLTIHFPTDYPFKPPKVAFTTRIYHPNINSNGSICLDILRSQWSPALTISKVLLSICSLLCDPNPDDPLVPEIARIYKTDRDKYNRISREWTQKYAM
Chain of ARIH1 (Q9Y4X5 whole entry): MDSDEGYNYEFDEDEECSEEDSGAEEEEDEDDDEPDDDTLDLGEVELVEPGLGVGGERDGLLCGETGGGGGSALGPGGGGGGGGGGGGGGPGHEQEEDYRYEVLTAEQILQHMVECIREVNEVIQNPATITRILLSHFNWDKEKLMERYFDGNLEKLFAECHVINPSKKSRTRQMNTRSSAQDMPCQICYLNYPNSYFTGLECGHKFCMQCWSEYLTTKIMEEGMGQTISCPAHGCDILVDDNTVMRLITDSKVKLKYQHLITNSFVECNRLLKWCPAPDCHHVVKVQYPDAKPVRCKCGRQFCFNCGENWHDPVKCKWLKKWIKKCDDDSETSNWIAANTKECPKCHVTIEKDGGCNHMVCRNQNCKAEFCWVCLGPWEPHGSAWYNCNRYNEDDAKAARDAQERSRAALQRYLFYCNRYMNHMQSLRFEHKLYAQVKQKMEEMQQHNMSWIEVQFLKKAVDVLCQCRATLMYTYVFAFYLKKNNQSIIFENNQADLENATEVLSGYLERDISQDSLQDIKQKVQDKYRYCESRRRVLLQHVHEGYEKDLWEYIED
Chain of UBE2G1 (P62253 whole entry): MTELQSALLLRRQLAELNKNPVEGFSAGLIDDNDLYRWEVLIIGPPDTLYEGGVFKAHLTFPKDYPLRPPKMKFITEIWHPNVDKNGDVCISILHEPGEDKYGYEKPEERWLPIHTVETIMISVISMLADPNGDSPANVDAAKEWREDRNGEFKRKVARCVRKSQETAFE

In [1], “UBE2R2 (wild type, unlabeled) (from UniProt Q712K3 1-238) (enzyme)” displayed a fold decrease of Kd against neddylated CUL2-RBX1 alone of 7 fold.

With “UBE2D3 (from UniProt P61077 1-147) (enzyme)”, the Table S1: Km of the UCE for the CRL complex; ubiquitin priming of Sil1 peptide, UBE2D3 (K0 ubiquitin) with unlabelled neddylated CRL2FEM1C, Michaelis-Menten fit in assay [2] is 0.916 µM. The Table S1: Km of the UCE for the CRL complex; ubiquitin priming of Hif1α peptide, UBE2D3 (K0 ubiquitin) with unlabelled neddylated CRL2VHL, Michaelis-Menten fit in assay [3] was 6.24 µM.

Usually Kd stands for the constant that tells how readily two partners part at equilibrium. Low values mean tighter binding, high ones weaker binding. “UBE2R2C93K-ubiquitin (from UniProt Q712K3 1-238; P0CG48 1-76) (complex)”: the Kd in [4] came out at 50 nM.

Substance “UBE2G1 (from UniProt P62253 1-170) (enzyme)” returned a Table S1: Km of the UCE for the CRL complex; ubiquitin priming of Sil1 peptide, UBE2G1 (K0 ubiquitin) with unlabelled neddylated CRL2FEM1C, Michaelis-Menten fit in [2] of 1.14 µM.

In the assay with FEM1C (human), “E88R UBE2R2 (from UniProt Q712K3 1-238) (enzyme)” showed a catalytic efficiency of Sil1 peptide priming with neddylated CRL2^FEM1C, against wild type of 300 fold.

As to “UBE2R2 (wild-type, unlabeled) (from UniProt Q712K3 1-238) (enzyme)”, the Kd in assay [5] is 156 nM; in [6] it was 44 nM.

“ARIH1 (from UniProt Q9Y4X5 1-557) (enzyme)” showed a Table S1: Km of the UCE for the CRL complex; ubiquitin priming of Sil1 peptide, ARIH1 (with UBE2L3, K0 ubiquitin) with unlabelled neddylated CRL2FEM1C, Michaelis-Menten fit in assay [2] of 0.143 µM. The substance also yielded a Table S1: Km of the UCE for the CRL complex; ubiquitin priming of Hif1α peptide, ARIH1 (with UBE2L3, K0 ubiquitin) with unlabelled neddylated CRL2VHL, Michaelis-Menten fit in [3] of 0.151 µM.

As to “Fluor647UBE2R2C93K (from UniProt Q712K3 1-238) (enzyme)”, the Kd in assay [7] turned out to be 276 nM; in assay [8], 1140 nM.
